The text below walks through data of publication PMC5461033 (The Journal of Cell Biology, 2017).

The target of this experiment is T1, FLAG-Sec16 (1,101–1,600 aa) (human, UniProt O15027-4 1101-1600).
T1 sequence: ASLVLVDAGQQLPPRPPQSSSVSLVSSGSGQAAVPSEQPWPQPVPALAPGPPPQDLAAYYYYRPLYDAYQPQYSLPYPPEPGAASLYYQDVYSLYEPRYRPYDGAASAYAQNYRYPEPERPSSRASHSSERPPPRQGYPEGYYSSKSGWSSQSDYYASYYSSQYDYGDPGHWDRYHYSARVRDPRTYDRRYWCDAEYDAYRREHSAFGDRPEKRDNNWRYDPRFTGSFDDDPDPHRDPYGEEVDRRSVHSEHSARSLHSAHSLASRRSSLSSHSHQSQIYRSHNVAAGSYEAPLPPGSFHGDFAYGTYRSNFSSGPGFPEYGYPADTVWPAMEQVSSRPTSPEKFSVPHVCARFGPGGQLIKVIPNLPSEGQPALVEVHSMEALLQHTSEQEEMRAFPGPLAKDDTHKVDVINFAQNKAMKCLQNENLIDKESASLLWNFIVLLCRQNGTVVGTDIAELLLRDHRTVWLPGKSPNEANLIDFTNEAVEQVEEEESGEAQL
Kind of experiment: pull-down.

B1: GST-tagged TANGO1-PRDΔ60 (1,651–1,847 aa) (domain or fragment)
chain: NTQNPPRRGPLSQNGSFGPSPVSGGECSPPLTVEPPVRPLSATLNRRDMPRSEFGSVDGPLPHPRWSAEASGKPSPSDPGSGTATMMNSSSRGSSPTRVLDEGKVNMAPKGPPPFPGVPLMSTPMGGPVPPPIRYGPPPQLCGPFGPRPLPPPFGPGMRPPLGLREFAPGVPPGRRDLPLHPRGFLPGHAPFRPLGS
Regarding B1, the binding result is “binds”.

B2: GST-tagged TANGO1-PRD (1,651–1,907 aa) (domain or fragment)
chain: NTQNPPRRGPLSQNGSFGPSPVSGGECSPPLTVEPPVRPLSATLNRRDMPRSEFGSVDGPLPHPRWSAEASGKPSPSDPGSGTATMMNSSSRGSSPTRVLDEGKVNMAPKGPPPFPGVPLMSTPMGGPVPPPIRYGPPPQLCGPFGPRPLPPPFGPGMRPPLGLREFAPGVPPGRRDLPLHPRGFLPGHAPFRPLGSLGPREYFIPGTRLPPPTHGPQEYPPPPAVRDLLPSGSRDEPPPASQSTSQDCSQALKQSP
For B2, the binding result is “binds”.
